Test results from paper PMC12663309 (2025).

Molecular target: human NEK7 recombinant protein (HY-P75935, MCE) (human, UniProt Q8TDX7 1-302, RED-NHS dye label (in the MST only))
Test: MST

human NEK7 recombinant protein (HY-P75935, MCE), sequence (Q8TDX7 whole entry, one chain of several): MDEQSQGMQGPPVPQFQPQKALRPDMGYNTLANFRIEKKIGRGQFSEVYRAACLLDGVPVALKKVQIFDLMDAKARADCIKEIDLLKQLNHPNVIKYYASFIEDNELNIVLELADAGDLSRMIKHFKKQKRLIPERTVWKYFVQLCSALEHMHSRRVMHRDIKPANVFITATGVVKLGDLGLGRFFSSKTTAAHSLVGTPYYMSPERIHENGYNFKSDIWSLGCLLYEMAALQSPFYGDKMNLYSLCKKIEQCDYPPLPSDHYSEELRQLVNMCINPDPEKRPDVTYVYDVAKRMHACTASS

Kd: 19.5 µM
B1: human SDHB recombinant protein (Ag29868, Proteintech) (natural protein)
chain: AQTAAATAPRIKKFAIYRWDPDKAGDKPHMQTYEVDLNKCGPMVLDALIKIKNEVDSTLTFRRSCREGICGSCAMNINGGNTLACTRRIDTNLNKVSKIYPLPHMYVIKDLVPDLSNFYAQYKSIEPYLKKKDESQEGKQQYLQSIEEREKLDGLYECILCACCSTSCPSYWWNGDKYLGPAVLMQAYRWMIDSRDDFTEERLAKLQDPFSLYRCHTIMNCTRTCPKGLNPGKAIAEIKKMMATYKEKKASV
